Source: the supplement of paper PMC5998384

Legend:
HeLa Kyoto [1] = test: solubility in G1/S (NP-40 vs SDS abundance) (log2 ratio); higher = more soluble; settings: cell cycle stage: G1/S
HeLa Kyoto [2] = test: thermal stability score vs G1/S (z-score of summed log2 fold changes over temperatures); higher = more thermally stable than in G1/S
HeLa Kyoto [3] = test: melting temperature (median over replicates), in situ; higher = more thermally stable
HeLa Kyoto [4] = test: solubility change mitosis vs G1/S (difference of NP-40 vs SDS log2 ratios) (log2 ratio difference); higher = more soluble in mitosis
[5] = cell cycle stage: early G1 (4.5 h after nocodazole release)
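For melting temperature (median over replicates), in situ in this document: HeLa Kyoto cells synchronized by double thymidine or nocodazole block, proteins quantified by TMT10plex mass spectrometry, three independent biological replicates.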
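For solubility change mitosis vs G1/S (difference of NP-40 vs SDS log2 ratios) in this document: synchronized HeLa Kyoto cells (double thymidine block for G1/S, nocodazole release for mitosis), protein amounts in NP-40 versus SDS lysates quantified by mass spectrometry, three biological replicates.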
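For solubility in G1/S (NP-40 vs SDS abundance) in this document: HeLa Kyoto cells arrested at G1/S by double thymidine block, proteins quantified by TMT10plex mass spectrometry in mild NP-40 versus SDS extracts, three biological replicates.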
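For thermal stability score vs G1/S (z-score of summed log2 fold changes over temperatures) in this document: synchronized HeLa Kyoto cells, proteins quantified by TMT10plex mass spectrometry, three biological replicates, mitosis taken 0.5 h after nocodazole release, G1/S directly after double thymidine block.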

MTTKRSLFVRLVPCRCLRGEEETVTTLDYSHCSLEQVPKEIFTFEKTLEELYLDANQIEELPKQLFNCQSLHKLSLPDNDLTTLPASIANLINLRELDVSKNGIQEFPENIKNCKVLTIVEASVNPISKLPDGFSQLLNLTQLYLNDAFLEFLPANFGRLTKLQILELRENQLKMLPKTMNRLTQLERLDLGSNEFTEVPEVLEQLSGLKEFWMDANRLTFIPGFIGSLKQLTYLDVSKNNIEMVEEGISTCENLQDLLLSSNSLQQLPETIGSLKNITTLKIDENQLMYLPDSIGGLISVEELDCSFNEVEALPSSIGQLTNLRTFAADHNYLQQLPPEIGSWKNITVLFLHSNKLETLPEEMGDMQKLKVINLSDNRLKNLPFSFTKLQQLTAMWLSDNQSKPLIPLQKETDSETQKMVLTNYMFPQQPRTEDVMFISDNESFNPSLWEEQRKQRAQVAFECDEDKDEREAPPREGNLKRYPTPYPDELKNMVKTVQTIVHRLKDEETNEDSGRDLKPHEDQQDINKDVGVKTSESTTTVKSKVDEREKYMIGNSVQKISEPEAEISPGSLPVTANMKASENLKHIVNHDDVFEESEELSSDEEMKMAEMRPPLIETSINQPKVVALSNNKKDDTKETDSLSDEVTHNSNQNNSNCSSPSRMSDSVSLNTDSSQDTSLCSPVKQTHIDINSKIRQEDENFNSLLQNGDILNSSTEEKFKAHDKKDFNLPEYDLNVEERLVLIEKSVDSTATADDTHKLDHINMNLNKLITNDTFQPEIMERSKTQDIVLGTSFLSINSKEETEHLENGNKYPNLESVNKVNGHSEETSQSPNRTEPHDSDCSVDLGISKSTEDLSPQKSGPVGSVVKSHSITNMEIGGLKIYDILSDNGPQQPSTTVKITSAVDGKNIVRSKSATLLYDQPLQVFTGSSSSSDLISGTKAIFKFDSNHNPEEPNIIRGPTSGPQSAPQIYGPPQYNIQYSSSAAVKDTLWHSKQNPQIDHASFPPQLLPRSESTENQSYAKHSANMNFSNHNNVRANTAYHLHQRLGPARHGEMWAISPNDRLIPAVTRSTIQRQSSVSSTASVNLGDPGSTRRAQIPEGDYLSYREFHSAGRTPPMMPGSQRPLSARTYSIDGPNASRPQSARPSINEIPERTMSVSDFNYSRTSPSKRPNARVGSEHSLLDPPGKSKVPRDWREQVLRHIEAKKLEKKHPQTSSSGDPCQDGIFISGQQNYSSATLSHKDVPPDSLMKMPLSNGQMGQPLRPQANYSQIHHPPQASVARHPSREQLIDYLMLKVAHQPPYTQPHCSPRQGHELAKQEIRVRVEKDPELGFSISGGVGGRGNPFRPDDDGIFVTRVQPEGPASKLLQPGDKIIQANGYSFINIEHGQAVSLLKTFQNTVELIIVREVSS [ERBB2IP]
solubility in G1/S (log2) (HeLa Kyoto [1]): -0.0185
thermal stability score (HeLa Kyoto [2]; [5]): 0.246
thermal stability score (HeLa Kyoto [2]; cell cycle stage: mitosis): 1.12
melting temperature (HeLa Kyoto [3]; cell cycle stage: G1/S): 48.8 °C
melting temperature (HeLa Kyoto [3]; cell cycle stage: mitosis): 49 °C
solubility change mitosis (log2) (HeLa Kyoto [4]): -0.0785

MNMTQARVLVAAVVGLVAVLLYASIHKIEEGHLAVYYRGGALLTSPSGPGYHIMLPFITTFRSVQTTLQTDEVKNVPCGTSGGVMIYIDRIEVVNMLAPYAVFDIVRNYTADYDKTLIFNKIHHELNQFCSAHTLQEVYIELFDQIDENLKQALQKDLNLMAPGLTIQAVRVTKPKIPEAIRRNFELMEAEKTKLLIAAQKQKVVEKEAETERKKAVIEAEKIAQVAKIRFQQKVMEKETEKRISEIEDAAFLAREKAKADAEYYAAHKYATSNKHKLTPEYLELKKYQAIASNSKIYFGSNIPNMFVDSSCALKYSDIRTGRESSLPSKEALEPSGENVIQNKESTG [ERLIN1]
solubility in G1/S (log2) (HeLa Kyoto [1]): 0.24
thermal stability score (HeLa Kyoto [2]; [5]): 1.82
thermal stability score (HeLa Kyoto [2]; cell cycle stage: mitosis): 4.38
melting temperature (HeLa Kyoto [3]; cell cycle stage: G1/S): 52.7 °C
melting temperature (HeLa Kyoto [3]; cell cycle stage: mitosis): 53.1 °C
solubility change mitosis (log2) (HeLa Kyoto [4]): -0.0762

MVLCPVIGKLLHKRVVLASASPRRQEILSNAGLRFEVVPSKFKEKLDKASFATPYGYAMETAKQKALEVANRLYQKDLRAPDVVIGADTIVTVGGLILEKPVDKQDAYRMLSRLSGREHSVFTGVAIVHCSSKDHQLDTRVSEFYEETKVKFSELSEELLWEYVHSGEPMDKAGGYGIQALGGMLVESVHGDFLNVVGFPLNHFCKQLVKLYYPPRPEDLRRSVKHDSIPAADTFEDLSDVEGGGSEPTQRDAGSRDEKAEAGEAGQATAEAECHRTRETLPPFPTRLLELIEGFMLSKGLLTACKLKVFDLLKDEAPQKAADIASKVDASACGMERLLDICAAMGLLEKTEQGYSNTETANVYLASDGEYSLHGFIMHNNDLTWNLFTYLEFAIREGTNQHHRALGKKAEDLFQDAYYQSPETRLRFMRAMHGMTKLTACQVATAFNLSRFSSACDVGGCTGALARELAREYPRMQVTVFDLPDIIELAAHFQPPGPQAVQIHFAAGDFFRDPLPSAELYVLCRILHDWPDDKVHKLLSRVAESCKPGAGLLLVETLLDEEKRVAQRALMQSLNMLVQTEGKERSLGEYQCLLELHGFHQVQVVHLGGVLDAILATKVAP [ASMTL]
solubility in G1/S (log2) (HeLa Kyoto [1]): -0.0739
thermal stability score (HeLa Kyoto [2]; [5]): 0.0527
thermal stability score (HeLa Kyoto [2]; cell cycle stage: mitosis): 0.533
melting temperature (HeLa Kyoto [3]; cell cycle stage: G1/S): 51.6 °C
melting temperature (HeLa Kyoto [3]; cell cycle stage: mitosis): 50.8 °C
solubility change mitosis (log2) (HeLa Kyoto [4]): -0.178

MFGKRKKRVEISAPSNFEHRVHTGFDQHEQKFTGLPRQWQSLIEESARRPKPLVDPACITSIQPGAPKTIVRGSKGAKDGALTLLLDEFENMSVTRSNSLRRDSPPPPARARQENGMPEEPATTARGGPGKAGSRGRFAGHSEAGGGSGDRRRAGPEKRPKSSREGSGGPQESSRDKRPLSGPDVGTPQPAGLASGAKLAAGRPFNTYPRADTDHPSRGAQGEPHDVAPNGPSAGGLAIPQSSSSSSRPPTRARGAPSPGVLGPHASEPQLAPPACTPAAPAVPGPPGPRSPQREPQRVSHEQFRAALQLVVDPGDPRSYLDNFIKIGEGSTGIVCIATVRSSGKLVAVKKMDLRKQQRRELLFNEVVIMRDYQHENVVEMYNSYLVGDELWVVMEFLEGGALTDIVTHTRMNEEQIAAVCLAVLQALSVLHAQGVIHRDIKSDSILLTHDGRVKLSDFGFCAQVSKEVPRRKSLVGTPYWMAPELISRLPYGPEVDIWSLGIMVIEMVDGEPPYFNEPPLKAMKMIRDNLPPRLKNLHKVSPSLKGFLDRLLVRDPAQRATAAELLKHPFLAKAGPPASIVPLMRQNRTR [PAK4]
solubility in G1/S (log2) (HeLa Kyoto [1]): 0.0713
thermal stability score (HeLa Kyoto [2]; [5]): 0.186
thermal stability score (HeLa Kyoto [2]; cell cycle stage: mitosis): 0.111
melting temperature (HeLa Kyoto [3]; cell cycle stage: G1/S): 51.3 °C
melting temperature (HeLa Kyoto [3]; cell cycle stage: mitosis): 50.5 °C
solubility change mitosis (log2) (HeLa Kyoto [4]): -0.000436

MEDTPLVISKQKTEVVCGVPTQVVCTAFSSHILVVVTQFGKMGTLVSLEPSSVASDVSKPVLTTKVLLGQDEPLIHVFAKNLVAFVSQEAGNRAVLLAVAVKDKSMEGLKALREVIRVCQVW [PSMG3]
solubility in G1/S (log2) (HeLa Kyoto [1]): 0.13
thermal stability score (HeLa Kyoto [2]; [5]): -1.46
thermal stability score (HeLa Kyoto [2]; cell cycle stage: mitosis): -2.93
melting temperature (HeLa Kyoto [3]; cell cycle stage: G1/S): 57.8 °C
melting temperature (HeLa Kyoto [3]; cell cycle stage: mitosis): 56.2 °C
solubility change mitosis (log2) (HeLa Kyoto [4]): -0.0857

KIF21A
solubility in G1/S (log2) (HeLa Kyoto [1]): -0.0549
thermal stability score (HeLa Kyoto [2]; [5]): -1.01
thermal stability score (HeLa Kyoto [2]; cell cycle stage: mitosis): 0.181
melting temperature (HeLa Kyoto [3]; cell cycle stage: G1/S): 49.5 °C
melting temperature (HeLa Kyoto [3]; cell cycle stage: mitosis): 50.3 °C
solubility change mitosis (log2) (HeLa Kyoto [4]): -0.0922

MATTGTPTADRGDAAATDDPAARFQVQKHSWDGLRSIIHGSRKYSGLIVNKAPHDFQFVQKTDESGPHSHRLYYLGMPYGSRENSLLYSEIPKKVRKEALLLLSWKQMLDHFQATPHHGVYSREEELLRERKRLGVFGITSYDFHSESGLFLFQASNSLFHCRDGGKNGFMVSPMKPLEIKTQCSGPRMDPKICPADPAFFSFINNSDLWVANIETGEERRLTFCHQGLSNVLDDPKSAGVATFVIQEEFDRFTGYWWCPTASWEGSEGLKTLRILYEEVDESEVEVIHVPSPALEERKTDSYRYPRTGSKNPKIALKLAEFQTDSQGKIVSTQEKELVQPFSSLFPKVEYIARAGWTRDGKYAWAMFLDRPQQWLQLVLLPPALFIPSTENEEQRLASARAVPRNVQPYVVYEEVTNVWINVHDIFYPFPQSEGEDELCFLRANECKTGFCHLYKVTAVLKSQGYDWSEPFSPGEDEFKCPIKEEIALTSGEWEVLARHGSKIWVNEETKLVYFQGTKDTPLEHHLYVVSYEAAGEIVRLTTPGFSHSCSMSQNFDMFVSHYSSVSTPPCVHVYKLSGPDDDPLHKQPRFWASMMEAASCPPDYVPPEIFHFHTRSDVRLYGMIYKPHALQPGKKHPTVLFVYGGPQVQLVNNSFKGIKYLRLNTLASLGYAVVVIDGRGSCQRGLRFEGALKNQMGQVEIEDQVEGLQFVAEKYGFIDLSRVAIHGWSYGGFLSLMGLIHKPQVFKVAIAGAPVTVWMAYDTGYTERYMDVPENNQHGYEAGSVALHVEKLPNEPNRLLILHGFLDENVHFFHTNFLVSQLIRAGKPYQLQIYPNERHSIRCPESGEHYEVTLLHFLQEYL [DPP9]
solubility in G1/S (log2) (HeLa Kyoto [1]): -0.0578
thermal stability score (HeLa Kyoto [2]; [5]): -0.344
thermal stability score (HeLa Kyoto [2]; cell cycle stage: mitosis): -0.63
melting temperature (HeLa Kyoto [3]; cell cycle stage: G1/S): 51.3 °C
melting temperature (HeLa Kyoto [3]; cell cycle stage: mitosis): 51.1 °C
solubility change mitosis (log2) (HeLa Kyoto [4]): -0.171

MSLYPSLEDLKVDKVIQAQTAFSANPANPAILSEASAPIPHDGNLYPRLYPELSQYMGLSLNEEEIRANVAVVSGAPLQGQLVARPSSINYMVAPVTGNDVGIRRAEIKQGIREVILCKDQDGKIGLRLKSIDNGIFVQLVQANSPASLVGLRFGDQVLQINGENCAGWSSDKAHKVLKQAFGEKITMTIRDRPFERTITMHKDSTGHVGFIFKNGKITSIVKDSSAARNGLLTEHNICEINGQNVIGLKDSQIADILSTSGTVVTITIMPAFIFEHIIKRMAPSIMKSLMDHTIPEV [SDCBP]
solubility in G1/S (log2) (HeLa Kyoto [1]): 0.00564
thermal stability score (HeLa Kyoto [2]; [5]): -1.02
thermal stability score (HeLa Kyoto [2]; cell cycle stage: mitosis): -6.31
melting temperature (HeLa Kyoto [3]; cell cycle stage: G1/S): 52.6 °C
melting temperature (HeLa Kyoto [3]; cell cycle stage: mitosis): 51.4 °C
solubility change mitosis (log2) (HeLa Kyoto [4]): -0.0317
